From article PMC11754618, “Chemical tools to define and manipulate interferon-inducible Ubl protease USP18” (Nature Communications, 2025)

T1: His6-Mm.USP18 (46-368) (mouse, UniProt Q9WTV6 46-368)
T1 construct: ubiquitin-specific protease 18 (USP18), mouse, residues 46-368; Expressed as MBP-tev-His6-USP18 from pDest-795 (Addgene 161881 is the vector); the TEV site ENLYFQG was cut, His6 stays and serves for capture on the NTA chip; also called mouse USP18; recombinant mouse USP18; source: insect cells (baculovirus), purified (IMAC, TEV digest, second IMAC); not shown: MBP, N-terminal, cleaved; His6, …
T1 sequence (looked up): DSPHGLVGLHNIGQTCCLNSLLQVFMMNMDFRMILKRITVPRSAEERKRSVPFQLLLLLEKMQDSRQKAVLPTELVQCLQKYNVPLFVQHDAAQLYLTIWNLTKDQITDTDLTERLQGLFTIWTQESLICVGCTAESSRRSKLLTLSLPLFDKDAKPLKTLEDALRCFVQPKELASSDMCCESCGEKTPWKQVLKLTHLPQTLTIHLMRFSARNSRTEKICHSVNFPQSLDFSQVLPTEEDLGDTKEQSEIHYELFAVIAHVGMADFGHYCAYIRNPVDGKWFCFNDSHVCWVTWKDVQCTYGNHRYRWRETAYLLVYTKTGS

T2: His6-Hs.USP18 (16-372) (human, UniProt Q9UMW8 16-372)
T2 construct: ubiquitin-specific protease 18 (USP18), human, residues 16-372; Expressed as MBP-tev-His6-USP18 from pDest-795 (Addgene 161881 is the vector); the TEV site was cut, His6 stays; also called human USP18; recombinant human USP18; source: insect cells (baculovirus), purified (IMAC, TEV digest, second IMAC); not shown: MBP, N-terminal, cleaved; His6, N-terminal, kept
T2 sequence (looked up): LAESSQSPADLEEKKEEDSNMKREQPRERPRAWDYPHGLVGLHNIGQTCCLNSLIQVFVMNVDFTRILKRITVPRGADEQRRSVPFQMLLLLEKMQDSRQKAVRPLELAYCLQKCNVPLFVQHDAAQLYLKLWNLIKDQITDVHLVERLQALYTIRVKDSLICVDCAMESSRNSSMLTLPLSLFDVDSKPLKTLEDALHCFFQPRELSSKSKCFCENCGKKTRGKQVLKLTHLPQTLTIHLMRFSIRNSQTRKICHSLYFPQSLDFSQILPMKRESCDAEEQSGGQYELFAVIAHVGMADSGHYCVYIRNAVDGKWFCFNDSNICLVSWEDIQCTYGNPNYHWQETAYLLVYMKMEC


Columns and labels:
Details in all cases: both partners purified
His6-Mm.USP18 (46-368) [1] = target: T1, His6-Mm.USP18 (46-368); experiment: covalent labelling by an activity-based probe (SDS-PAGE); recombinant USP18 (2 μM), USP5 (1 μM) or USP16 (0.45 μM) with Ac-Ubl-PA probes (10 μM), 3 h, room temperature; higher band on SDS-PAGE, SYPRO Ruby staining
His6-Hs.USP18 (16-372) [2] = target: T2, His6-Hs.USP18 (16-372); experiment: as above
His6-Mm.USP18 (46-368) [3] = target: T1, His6-Mm.USP18 (46-368); experiment: SPR; BIAcore 3000; mouse and human USP18 immobilised via the N-terminal His6 tag on an NTA chip; 25 °C; 50 mM HEPES, 150 mM NaCl, 0.05 mM EDTA, 0.5 mM DTT, 0.01% P20, pH 7.5; 20 μL/min; Langmuir 1:1 model with drift
His6-Hs.USP18 (16-372) [4] = target: T2, His6-Hs.USP18 (16-372); experiment: as above

| Binder | binding result (His6-Mm.USP18 (46-368) [1]) | binding result (His6-Hs.USP18 (16-372) [2]) | binding result (His6-Mm.USP18 (46-368) [3]) | binding result (His6-Hs.USP18 (16-372) [4]) |
| --- | --- | --- | --- | --- |
| Ac-mISG15CTD[WT]-PA (domain or fragment, mouse, N-terminal acetyl; C-terminal propargylamine (PA) warhead replacing Gly155, C-terminal domain of mouse ISG15, Leu80~Gly154; also called Ac-mISG15CTD-PA; WT probe; source: synthetic (solid-phase peptide synthesis), RP-HPLC purified) LSILVRNERGHSNIYEVFLTQTVDTLKKKVSQREQVHEDQFWLSFEGRPMEDKELLGEYGLKPQSTVIKHLRLRG | binds | binds | – | – |
| Ac-mISG15CTD-OH (wild type) (domain or fragment, mouse, N-terminal acetyl, C-terminal domain of mouse ISG15, Leu80~Gly154; also called Ac-mISG15CTD[WT]-OH; source: synthetic (solid-phase peptide synthesis), RP-HPLC purified) LSILVRNERGHSNIYEVFLTQTVDTLKKKVSQREQVHEDQFWLSFEGRPMEDKELLGEYGLKPQSTVIKHLRLRG | – | – | binds | binds |
